Measurements taken from the supplement of paper PMC10567573.

B1: SLC35F2 (parent)
chain: QYLAERYKVNTPMLQSFINYCLLF
B2: RAB40B (parent)
chain: YSLTTSSTHKRSSLRKVKLVRPPQ

Variants of: B1
Assay: protein stability index of a GFP-peptide fusion (GPS, HEK-293T) (PSI 1-6); higher = more stable
Details: c terminus: a fixed tail appended
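Also: lentivirally expressed fusions sorted by FACS into six bins by GFP to DsRed ratio, PSI derived from sequencing read proportions per bin multiplied by bin number.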

Protein stability index, by site and new letter:
F24: W 2.19, Y 3.33

Variants of: B2
Assay: as above
Details: c terminus: a fixed tail appended

Protein stability index of substitutions, site by site:
Y1: A 3.99, C 3.16, D 4.11, E 4.12, F 2.81, G 3.75, H 3.46, I 3.15, K 3.61, L 3.15, M 3.2, N 4.04, P 3.97, Q 3.82, R 3.94, S 4.16, T 3.66, V 2.74, W 3.19
S2: A 2.44, C 2.3, D 3.75, E 3.12, F 1.82, G 3.06, H 2.09, I 1.98, K 2.95, L 2.48, M 2.81, N 2.96, P 2.74, Q 2.74, R 3.56, T 2.81, V 2.38, W 1.64, Y 1.93
L3: A 3.88, C 3, D 3.7, E 3.94, F 2.57, G 3.18, H 3.06, I 2.88, K 3.43, M 2.97, N 3.3, P 2.96, Q 3.31, R 3.34, S 3.13, T 3.08, V 3.17, W 2.02, Y 2.24
T4: A 3.06, C 2.48, D 3.85, E 3.52, F 1.77, G 3.33, H 2.81, I 2.53, K 3.33, L 3.26, M 2.55, N 3.31, P 3.16, Q 3.82, R 3.33, S 3.38, V 2.7, W 1.35, Y 2.17
T5: A 3.48, C 2.62, D 3.4, E 3.62, F 2.05, G 3.25, H 2.81, I 1.86, K 3.2, L 2.91, M 2.97, N 3.83, P 3.05, Q 3.44, R 3.43, S 3.07, V 2.79, W 1.45, Y 2.53
S6: A 2.88, C 2.95, D 3.05, E 3.57, F 2.38, G 3.34, H 3.42, I 2.58, K 3.33, L 2.93, M 2.62, N 2.77, P 2.63, Q 2.92, R 2.96, T 3.29, V 2.83, W 2.17, Y 2.48
S7: A 2.84, C 2.92, D 2.94, E 3.34, F 2.27, G 3.23, H 3.07, I 2.6, K 3.11, L 2.81, M 2.42, N 2.98, P 3.47, Q 2.9, R 2.62, T 2.81, V 2.7, W 2.24, Y 2.35
T8: A 2.82, C 2.8, D 3.32, E 3.51, F 2.63, G 3.71, H 2.76, I 2.63, K 3.02, L 2.43, M 2.98, N 3.4, P 3.38, Q 3.26, R 2.57, S 2.89, V 2.53, W 2.49, Y 3
H9: A 2.75, C 2.72, D 3.22, E 2.72, F 2.91, G 3.23, I 2.61, K 3.29, L 3.26, M 2.52, N 3.11, P 3.08, Q 3.62, R 3.29, S 3.42, T 3.32, V 2.65, W 1.82, Y 2.38
K10: A 3.14, C 2.3, D 3.23, E 3.67, F 2.62, G 3.21, H 2.68, I 2.02, L 2.81, M 3.3, N 2.85, P 2.92, Q 2.3, R 3.18, S 3.02, T 2.43, V 2.55, W 1.89, Y 3.05
R11: A 3.68, C 2.59, D 3.4, E 3.33, F 2.32, G 2.83, H 3.15, I 2.46, K 3.17, L 2.3, M 2.99, N 2.87, P 2.75, Q 3.46, S 2.77, T 3.67, V 2.52, W 1.87, Y 2.51
S12: A 2.97, C 2.41, D 3.71, E 3.07, F 2.17, G 3.36, H 3.16, I 2.36, K 3.83, L 2.33, M 2.63, N 3.16, P 3.15, Q 3.71, R 3.32, T 3.07, V 2.57, W 2.23, Y 2.85
S13: A 3.25, C 3.01, D 2.58, E 3.21, F 2.12, G 2.86, H 3.18, I 2.74, K 3.49, L 2.45, M 2.47, N 3.21, P 3.4, Q 3.35, R 3.4, T 2.4, V 3.06, W 1.69, Y 2.53
L14: A 3.68, C 2.6, D 3.83, E 3.82, F 2.62, G 3.79, H 3.46, I 3.37, K 3.37, M 2.64, N 3.77, P 3.86, Q 3.98, R 3.69, S 3.5, T 3.87, V 3.25, W 2.38, Y 3.06
R15: A 2.49, C 2.81, D 3.54, E 3.25, F 1.94, G 2.97, H 2.51, I 2.13, K 3.24, L 2.44, M 2.46, N 2.94, P 3.47, Q 3.35, S 2.95, T 3.02, V 2.48, W 2.12, Y 1.86
K16: A 2.93, C 2.58, D 3.59, E 3.52, F 2.13, G 2.81, H 2.54, I 1.95, L 2.35, M 2.35, N 3.19, P 3.06, Q 3.08, R 2.99, S 2.93, T 3.03, V 2.1, W 2.14, Y 2.9
V17: A 3.28, C 2.91, D 3.33, E 3.5, F 2.67, G 3.12, H 3.55, I 2.63, K 3.47, L 2.77, M 2.75, N 3.39, P 3.13, Q 3.38, R 4.01, S 3.3, T 3.09, W 2.53, Y 2.98
K18: A 3.2, C 2.63, D 3.81, E 3.43, F 2.54, G 2.81, H 3.71, I 2.34, L 2.49
